The labels stand for the following.
B1: CLPTM1 (parent)
chain: LGCYAVYSLLYLEHKGWYSWVLSM
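Also: lentivirally expressed fusions sorted by FACS into six bins by GFP to DsRed ratio, PSI derived from sequencing read proportions per bin multiplied by bin number.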

In this data set the parent is B1. Briefly: protein stability index of a GFP-peptide fusion (GPS, HEK-293T) (PSI 1-6); higher = more stable. The conditions noted are these: c terminus: a fixed tail appended.
As to LGCYAVYSLLFLEHKGWYSWVLSM [Y11F], the protein stability index stood at 3.26.

LGCYAVYSLLKLEHKGWYSWVLSM [Y11K]: the protein stability index is 2.63.

LGCYAVYSLLGLEHKGWYSWVLSM [Y11G]: the protein stability index stood at 4.08.

For the variant LGCYAVYSLLWLEHKGWYSWVLSM [Y11W], the protein stability index was 2.68.

For LGCYAVYSLLHLEHKGWYSWVLSM [Y11H], the protein stability index is 2.09.

As to LGCYAVYSLLPLEHKGWYSWVLSM [Y11P], the protein stability index was determined as 2.2.

For the variant LGCYAVYSLLTLEHKGWYSWVLSM [Y11T], the protein stability index turned out to be 2.69.

Regarding LGCYAVYSLLDLEHKGWYSWVLSM [Y11D], the protein stability index was determined as 2.36.

Turning to LGCYAVYSLLQLEHKGWYSWVLSM [Y11Q], the protein stability index was found to be 3.22.

For the variant LGCYAVYSLLILEHKGWYSWVLSM [Y11I], the protein stability index was determined as 3.

On to LGCYAVYSLLMLEHKGWYSWVLSM [Y11M], for which the protein stability index is 2.05.

LGCYAVYSLLELEHKGWYSWVLSM [Y11E]: the protein stability index came to 3.13.

As to LGCYAVYSLLNLEHKGWYSWVLSM [Y11N], the protein stability index is 2.

With LGCYAVYSLLYLEHKTWYSWVLSM [G16T], the protein stability index was determined as 2.75.

As for LGCYAVYSLLYLEHKPWYSWVLSM [G16P], the protein stability index stood at 2.75.

As to LGCYAVYSLLYLEHKRWYSWVLSM [G16R], the protein stability index was determined as 1.42.

For the variant LGCYAVYSLLYLEHKFWYSWVLSM [G16F], the protein stability index was determined as 2.

Consider LGCYAVYSLLYLEHKNWYSWVLSM [G16N], for which the protein stability index worked out at 2.7.

Consider LGCYAVYSLLYLEHKDWYSWVLSM [G16D], for which the protein stability index stood at 2.47.

LGCYAVYSLLYLEHKHWYSWVLSM [G16H]: the protein stability index turned out to be 3.98.

For LGCYAVYSLLYLEHKAWYSWVLSM [G16A], the protein stability index worked out at 4.05.

On to LGCYAVYSLLYLEHKEWYSWVLSM [G16E], for which the protein stability index worked out at 2.88.

For LGCYAVYSLLYLEHKVWYSWVLSM [G16V], the protein stability index is 2.84.

In the case of LGCYAVYSLLYLEHKMWYSWVLSM [G16M], the protein stability index was 2.67.

As for LGCYAVYSLLYLEHKGFYSWVLSM [W17F], the protein stability index was found to be 1.55.

Turning to LGCYAVYSLLYLEHKGKYSWVLSM [W17K], the protein stability index was 3.85.

As for LGCYAVYSLLYLEHKGNYSWVLSM [W17N], the protein stability index is 4.13.

On to LGCYAVYSLLYLEHKGDYSWVLSM [W17D], for which the protein stability index was determined as 2.76.

On to LGCYAVYSLLYLEHKGCYSWVLSM [W17C], for which the protein stability index was 2.36.

As to LGCYAVYSLLYLEHKGPYSWVLSM [W17P], the protein stability index was found to be 2.44.

Consider LGCYAVYSLLYLEHKGRYSWVLSM [W17R], for which the protein stability index came out at 2.16.

LGCYAVYSLLYLEHKGGYSWVLSM [W17G]: the protein stability index is 2.14.

Regarding LGCYAVYSLLYLEHKGYYSWVLSM [W17Y], the protein stability index is 2.38.

As to LGCYAVYSLLYLEHKGLYSWVLSM [W17L], the protein stability index was 2.96.

For the variant LGCYAVYSLLYLEHKGEYSWVLSM [W17E], the protein stability index was found to be 2.81.

As for LGCYAVYSLLYLEHKGAYSWVLSM [W17A], the protein stability index came to 3.3.

Turning to LGCYAVYSLLYLEHKGIYSWVLSM [W17I], the protein stability index is 2.71.

Turning to LGCYAVYSLLYLEHKGTYSWVLSM [W17T], the protein stability index is 3.28.

For the variant LGCYAVYTLLYLEHKGWYSWVLSM [S8T], the protein stability index was found to be 2.09.

For LGCYAVYKLLYLEHKGWYSWVLSM [S8K], the protein stability index was found to be 3.64.

Regarding LGCYAVYHLLYLEHKGWYSWVLSM [S8H], the protein stability index is 2.55.

Take LGCYAVYGLLYLEHKGWYSWVLSM [S8G]: the protein stability index stood at 4.38.

LGCYAVYPLLYLEHKGWYSWVLSM [S8P]: the protein stability index came out at 3.57.

For LGCYAVYWLLYLEHKGWYSWVLSM [S8W], the protein stability index was 1.43.

Turning to LGCYAVYELLYLEHKGWYSWVLSM [S8E], the protein stability index came to 1.27.

As to LGCYAVYALLYLEHKGWYSWVLSM [S8A], the protein stability index stood at 2.25.

Consider LGCYAVYCLLYLEHKGWYSWVLSM [S8C], for which the protein stability index was determined as 2.96.

Turning to LGCYAVYVLLYLEHKGWYSWVLSM [S8V], the protein stability index was found to be 1.96.

As to LGCYAVYNLLYLEHKGWYSWVLSM [S8N], the protein stability index came to 4.1.

Regarding LGCYAVYILLYLEHKGWYSWVLSM [S8I], the protein stability index is 3.15.

LGCYAVYSLLYLEGKGWYSWVLSM [H14G]: the protein stability index is 2.4.

Turning to LGCYAVYSLLYLESKGWYSWVLSM [H14S], the protein stability index turned out to be 2.43.

For the variant LGCYAVYSLLYLECKGWYSWVLSM [H14C], the protein stability index was 2.45.

Turning to LGCYAVYSLLYLEDKGWYSWVLSM [H14D], the protein stability index amounted to 2.41.

With LGCYAVYSLLYLEMKGWYSWVLSM [H14M], the protein stability index came to 2.53.

Take LGCYAVYSLLYLEVKGWYSWVLSM [H14V]: the protein stability index was found to be 2.52.

With LGCYAVYSLLYLEPKGWYSWVLSM [H14P], the protein stability index was 2.6.

On to LGCYAVYSLLYLELKGWYSWVLSM [H14L], for which the protein stability index stood at 2.4.

On to LGCYAVYSLLYLEYKGWYSWVLSM [H14Y], for which the protein stability index was determined as 3.4.

On to LGCYAVYSLLYLEIKGWYSWVLSM [H14I], for which the protein stability index was determined as 2.44.

Take LGCYAVYSLLYLEWKGWYSWVLSM [H14W]: the protein stability index is 3.16.

Consider LGCYAVYSLLYLEAKGWYSWVLSM [H14A], for which the protein stability index was 3.68.

Take LGCYAVYSLLYLEFKGWYSWVLSM [H14F]: the protein stability index was determined as 3.12.

For the variant LGCYAVYSLLYLERKGWYSWVLSM [H14R], the protein stability index worked out at 2.22.

Take LGCYAVYSLLYLEQKGWYSWVLSM [H14Q]: the protein stability index stood at 3.42.

For LGCYAVYSLLYLETKGWYSWVLSM [H14T], the protein stability index was 3.37.

In the case of LGCYAVYSLLYLENKGWYSWVLSM [H14N], the protein stability index came out at 2.58.

Take LGCYAVKSLLYLEHKGWYSWVLSM [Y7K]: the protein stability index turned out to be 2.19.

LGCYAVNSLLYLEHKGWYSWVLSM [Y7N]: the protein stability index stood at 5.04.

For the variant LGCYAVRSLLYLEHKGWYSWVLSM [Y7R], the protein stability index stood at 2.82.

As for LGCYAVWSLLYLEHKGWYSWVLSM [Y7W], the protein stability index amounted to 3.23.

Take LGCYAVQSLLYLEHKGWYSWVLSM [Y7Q]: the protein stability index amounted to 2.39.

As to LGCYAVMSLLYLEHKGWYSWVLSM [Y7M], the protein stability index was 3.54.

Regarding LGCYAVPSLLYLEHKGWYSWVLSM [Y7P], the protein stability index was 3.71.

For LGCYAVVSLLYLEHKGWYSWVLSM [Y7V], the protein stability index came out at 3.4.

Consider LGCYAVHSLLYLEHKGWYSWVLSM [Y7H], for which the protein stability index stood at 2.13.

For the variant LGCYAVISLLYLEHKGWYSWVLSM [Y7I], the protein stability index turned out to be 3.09.

In the case of LGCYAVYSLHYLEHKGWYSWVLSM [L10H], the protein stability index was determined as 2.84.

With LGCYAVYSLIYLEHKGWYSWVLSM [L10I], the protein stability index turned out to be 3.43.

LGCYAVYSLGYLEHKGWYSWVLSM [L10G]: the protein stability index amounted to 3.1.

For the variant LGCYAVYSLRYLEHKGWYSWVLSM [L10R], the protein stability index came to 1.94.

For the variant LGCYAVYSLMYLEHKGWYSWVLSM [L10M], the protein stability index was found to be 2.82.

As to LGCYAVYSLQYLEHKGWYSWVLSM [L10Q], the protein stability index was 3.9.

For LGCYAVYSLYYLEHKGWYSWVLSM [L10Y], the protein stability index is 2.5.

As to LGCYAVYSLSYLEHKGWYSWVLSM [L10S], the protein stability index was determined as 1.76.

Turning to LGCYAVYSLKYLEHKGWYSWVLSM [L10K], the protein stability index was determined as 3.39.

Consider LGCYAVYSLFYLEHKGWYSWVLSM [L10F], for which the protein stability index was determined as 3.57.

Turning to LGCYAVYSLNYLEHKGWYSWVLSM [L10N], the protein stability index was 3.35.

On to LGCYAVYSLDYLEHKGWYSWVLSM [L10D], for which the protein stability index stood at 3.21.

Take LGCYAVYSLCYLEHKGWYSWVLSM [L10C]: the protein stability index came out at 2.87.

Take LGCYAVYSLTYLEHKGWYSWVLSM [L10T]: the protein stability index is 2.74.

LGCYAVYSLPYLEHKGWYSWVLSM [L10P]: the protein stability index was found to be 2.45.

Consider LGCYAVYSLAYLEHKGWYSWVLSM [L10A], for which the protein stability index amounted to 2.39.

With LGCYAVYSLWYLEHKGWYSWVLSM [L10W], the protein stability index was 2.32.

The record behind these values is the supplement of paper PMC10567573.
